B1: E-box (dsDNA)
DNA 1: GAGACCACGTGTTGAC
DNA 2: GTCAACACGTGGTCTC
B2: CLEAR-box (FA) (dsDNA)
DNA 1: GAGATCACGTGATGAC
DNA 2: GTCATCACGTGATCTC
B3: M-box (dsDNA)
DNA 1: GAGATCATGTGTTGAC
DNA 2: GTCAACACATGATCTC

Biological target: MITF (UniProt Q08874 287-403)
Assay: fluorescence anisotropy; FA: 0.5 nM dsDNA, 10 mM Tris/HCl pH 7.5, 300 mM NaCl, 0.01% Triton X-100, 0.1 mg/mL BSA, 25 °C, 5 min; fit one MITF dimer per dsDNA. Crystals: 0.9 M sodium malonate pH 5.5
Conditions: protein: recombinant; chain copies: 2; label: 3' fluorescein on strand 1; blunt

MITF, sequence (Q08874 287-403): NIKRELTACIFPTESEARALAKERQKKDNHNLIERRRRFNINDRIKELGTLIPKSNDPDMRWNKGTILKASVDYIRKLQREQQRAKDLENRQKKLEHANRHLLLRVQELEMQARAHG

Binder | Kd [nM]
B1 | 1.5 ± 0.3
B2 | 0.9 ± 0.3
B3 | 2.6 ± 0.4

Source: PMC6355916, “MITF has a central role in regulating starvation-induced autophagy in melanoma”
